This is an account of results in US20170050988A1, “DOTAM DERIVATIVES FOR THERAPEUTIC USE” (priority 2013, published 2017).

Starred links: 1 amine or outer side, 2 acyl side, 3 side chain; linkers in the order of their positions; H or OH if unused. Positions of bridges follow the written chain, without caps; N, C: chain ends. Non-standard residues stand in square brackets, D forms with d. Residues, ends and D or L forms follow the SMILES beside them. Chains are numbered I, II in the order given. *: point of attachment. X3 = NCCOCCOCCNC(=O)CN1CCN(CC(=O)NCCOCCOCCN[*:1])CCN(CC(=O)NCCOCCOCCN)CCN(CC(=O)NCCOCCOCCN[*:2])CC1; X2 = CC(C)C[C@H](N[*:1])[C@H](O)CC(=O)[*:2]; Sta = CC(C)C[C@H](N)[C@@H](O)CC(=O)O; Isovaleryl = CC(C)CC(=O)*

Data set [1] can be described thus: Solubility in phosphate buffer. The data set is classed as physicochemical. Particulars: phosphate buffer at pH 7.4; read-out: solubility.
Another data set has as its target T1, Cathepsin D (Homo sapiens, UniProt P07339).
T1 construct: purchased Biomol Se-199
As to the kind of experiment: Cathepsin D enzyme assay. The class given is biochemical. As to the method: For quantification of Cathepsin D inhibitory activity, an enzymatic assay was used that measures the turnover of a quenched, fluorescenctly-labeled, Cathepsin D-cleavable, peptide substrate over time.
Specifically, 13 ng of purified Cathepsin D enzyme (Biomol; Cat.No. Se-199) was administered per well of a 96 well plate, substance/inhibitor of interest was added and the mixture incubated for 10 min. at 37° C. Then, the enzymatic reaction was started by addition of fluorescenctly-labeled, Cathepsin D-Substrat ([…] (7-Methoxycoumarin-4-yl)-acetyl-Pro-Leu-Gly-Leu-(3 [2,4-dinitrophenyl]-L-2,3-diaminopropionyl)-Ala-Arg-NH2 (Bachem M-1895). The reaction volume amounts to 30 μl and contains 50 mM acetic acid, 200 mM NaCl and 0.003% Brij 35 and was adjusted to pH 4.5 with acetic acid. By cleavage of the peptide chain, the […] is released and the emission of fluorescence dye is measured using excitation/emission wavelengths ([…]) on a Tecan Spectrafluor Plus—instrument at 37° C. for 10 min. For the determination of the compound dose response, a 10 mM DMSO stock solution was diluted and tested in a ten-point, three-fold dilution series run in duplicate beginning at 30 μM final concentration. Data were analyzed using a four-parameter curve fit with a fixed minimum and maximum experimentally defined as the average positive and negative controls on each plate.

Data set [2] deals with pig articular cartilage explants. As to the kind of experiment: Ex vivo GAG release model with pig articular cartilage explants. The data set is classed as cell-based. The conditions noted are these: explants pre-incubated with 1 μM inhibitor 24 h, then washed.
Data set [3] in a line: Solubility in DMSO after lyophilization. The class given is physicochemical. The procedure:
1 equiv. […] DIPEA (10 λl, 60 μmol). The reaction mixture was stirred under argon at room temperature for 2 days. The solvent was directly purified by preparative HPLC to give HHY-328 (4.3 mg, Yield: 22.6%) as a white powder.

A short description of data set [4]: T1 of contrast agent in DPBS. Particulars: 0.2 mM in DPBS. The class given is physicochemical. The procedure:
To explore the potential of cartilage targeting agents as practical MRI contrast agents for accurate diagnostic imaging, we investigated HHY-316Gd in vivo with healthy rats. As an essentially non-binding control, contrast agent HHY-341Gd (T1=1368±10 ms, 0.2 mM in DPBS) with the non-binding scrambled peptide sequence YRLGRW and acetylated amine groups was used as reference. MRI was performed using a 4.7 T Bruker BioSpec whole body MR imager. Male skeletally mature Lewis rats were anesthetized (by Isoflurane), fixed in supine position and both knees were placed within a transmitting/receiving wrist coil. […] In the HHY-316Gd applied knees there is a significant MRI signal enhancement of the articular and growth plate cartilages which consist principally of collagen II and proteoglycan. The signal intensity (SI) in the articular cartilage and growth plate increased 86% and 77% after 24 hours following administration of HHY-316Gd and increased 84% and 85% at 72 hours after intra-articular injection, respectively (FIGS. 6-11). […]
To assist histological examination of joint slices after termination of the study, we decided to co-administer a second probe, HHY-338 (T1=11493±27 ms, 0.2 mM in DPBS), containing a Cy5.5 moiety. […] Chondrophyte/osteophyte regions were examined in sections stained with safranin O/fast green and recorded using a Zeiss Miraxscan microscope (FIG. 12b).

T1 sequence (P07339 65-412): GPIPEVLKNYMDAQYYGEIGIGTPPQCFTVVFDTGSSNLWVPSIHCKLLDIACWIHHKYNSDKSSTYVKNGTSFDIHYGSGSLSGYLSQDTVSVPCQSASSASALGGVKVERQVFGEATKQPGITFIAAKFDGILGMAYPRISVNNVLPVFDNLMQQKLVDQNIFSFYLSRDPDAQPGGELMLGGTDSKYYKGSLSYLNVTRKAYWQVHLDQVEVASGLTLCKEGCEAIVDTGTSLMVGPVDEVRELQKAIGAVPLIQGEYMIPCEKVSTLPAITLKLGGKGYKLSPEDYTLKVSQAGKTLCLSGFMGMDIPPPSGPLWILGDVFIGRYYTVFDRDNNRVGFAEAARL

One may read the solubility as the dissolved amount per volume that the medium holds. The IC50 is the point on the concentration scale where inhibition reaches its midpoint. On to `CC(=O)N[C@@H](Cc1c[nH]c2ccccc12)C(=O)N[C@@H](Cc1ccc(O)cc1)C(=O)N[C@@H](CCCNC(=N)N)C(=O)NCC(=O)N[C@@H](CCCNC(=N)N)C(=O)N[C@@H](CC(C)C)C(=O)NCCOCCOCCNC(=O)CN1CCN(CC(=O)NCCOCCOCCN)CCN(CC(=O)NCCOCCOCCNC(=O)C[C@@H](O)[C@H](CC(C)C)NC(=O)[C@H](C)NC(=O)C[C@H](O)[C@H](CC(C)C)NC(=O)[C@@H](NC(=O)[C@@H](NC(=O)CC(C)C)C(C)C)C(C)C)CCN(CC(=O)NCCOCCOCCN)CC1` [HHY-327, AcWYRGRL-DOTA-Pepstatin A] (I: Ac-WYRGRL / II: Isovaleryl-VV[Sta]A[X2]; linker I:C-II:C via X3), for which the solubility in data set [1] is > 5920 µg/mL. On Cathepsin D, this molecule returned an IC50 of 2.1 nM. Besides, the “inhibition of GAG release” value in data set [2] (24 hours after stimulation at pH 5.0) is given as 41%; in data set [2] (48 hours after stimulation at pH 5.0), “no differentiating effect”. Besides, the “effect on acid-stimulated GAG release / degradation (FIG. 3)” value in data set [2] (pH 5.0) is on record as “very impressive effect”.

Consider AcWYRGRL-DOTA-(Pepstatin A)3 [HHY-328], for which the “solubility in DMSO” value in data set [3] is on record as “only slightly soluble”.

Consider AcWYRGRL-DOTA-Cy5.5-[Gd3+] [HHY-338], for which the T1 in data set [4] came to 11493 ± 27 ms.

In data set [4], AcYRLGRW-DOTA-[Gd3^+] [HHY-341Gd] showed a T1 of 1368 ± 10 ms.
